Experiments:
Ramos B cells [1] = assay: sIgM loss frequency assay (surrogate for SHM); assay type: cell-based, human; settings: day 7 after sorting mCherry+ cells
Description: sIgM loss frequency provides a convenient surrogate assay for SHM (45, 46). To determine fractions of sIgM− cells, 2-5×10^5 cells were fixed in 3.7% formaldehyde and stained with anti-human IgM (1:500, Souther Biotech), and sIgM− variants quantified by FACS as described (47). To establish that selective pressure was not sufficient to affect the frequency of sIgM loss, we assayed loss of mCherry signal posttransduction (FIG. 18).

Ramos B cells [2] = assay: Subcellular distribution of AID fusion proteins determined by HCS microscopy; assay type: cell-based, human; settings: for Nuclear mCherry, mean: corrected for cytoplasmic baseline
Experimental: Cells were fixed in 3.7% formaldehyde at a density of 2×10^6 cells/ml and stained with whole cell stain (HCS CellMask, Invitrogen) and DAPI (0.2 μg/ml). Fixed cells were then washed, resuspended in PBS and spun down in a 96-well μclear microplate (Greiner Bio One) for imaging. Cells were imaged by Thermo Scientific ArrayScan VTI HCS reader, analyzing 3000-6000 cells in each treatment group. Cells with very low or very high mCherry signals were eliminated, gating based on the mock transduction control (low) and eliminating cells with signals more than 5 SD from the mean (high). The HCS Colocalization BioApplication protocol was used to determine nuclear and whole cell boundaries in individual cells as defined by DAPI and HCS CellMask, respectively, thereby defining the cytoplasmic region as the region between nuclear and whole cell boundaries. The average signal in the nuclear and cytoplasmic compartments was determined in individual cells by measuring the total intensity of mCherry signal divided by area within each compartment. The ratio of nuclear to cytoplasmic signal (N/C) was calculated as the ratio of the average signals of nuclear and cytoplasmic mCherry.
G1, S, and G2/M phase cells were distinguished by ranking DNA content as determined by total DAPI signal, and specific fractions of the population assigned to G1, S and G2/M phases (FIG. 16A). HCS results were expressed in terms of average signal, to ensure independence of cell size, which increases during cell cycle (FIG. 16).
Cells were fixed and stained with whole cell stain (HCS CellMask, Invitrogen) and DAPI, washed, and imaged by Thermo Scientific ArrayScan VTI HCS reader, analyzing 3000-6000 cells in each treatment group. To enable accurate comparisons among different transductant populations, nuclear signal for each cell was corrected by subtraction of the corresponding baseline value, as established by linear regression analysis. HCS results were expressed in terms of average signal, to ensure independence of cell size.

B1: AID^F193A-mCherry: AID-mCherry carrying the AID F193A mutation, which prevents nuclear export (protein, UniProt Q9GZX7 1-198, looked up, variant F193A)
Single-stranded DNA cytosine …: MDSLLMNRRKFLYQFKNVRWAKGRRETYLCYVVKRRDSATSFSLDFGYLRNKNGCHVELLFLRYISDWDLDPGRCYRVTWFTSWSPCYDCARHVADFLRGNPNLSLRIFTARLYFCEDRKAEPEGLRRLHRAGVQIAIMTFKDYFYCWNTFVENHERTFKAWEGLHENSVRLSRQLRRILLPLYEVDDLRDAARTLGL
modifications: C-terminal mCherry fusion
notes: AID-mCherry carrying the AID F193A mutation, which prevents nuclear export
Which sIgM loss rates (Ramos B cells [1]) does the source give for B1 here?
The sIgM loss rates was “greatly elevated”.

What about the “subcellular localization by HCS across cell cycle” value (Ramos B cells [2]; G1, S, G2/M phase cells) of the same molecule?
Its value is “persistent nuclear localization”.

And the “Cytoplasmic mCherry, mean” value (Ramos B cells [2]; G1 phase cells)?
Its value is 66.4.

And the “Total mCherry, mean” value (Ramos B cells [2]; G1 phase cells)?
Its value is 117.5.

And the “Nuclear mCherry, mean” value (Ramos B cells [2]; G1 phase cells)?
Its value is 75.4.

What about the “Cytoplasmic mCherry, mean” value (Ramos B cells [2]; G2/M phase cells) of the same molecule?
Its value is 60.2.

What about the “Total mCherry, mean” value (Ramos B cells [2]; G2/M phase cells) of the same molecule?
The value was 109.7.

And the “Nuclear mCherry, mean” value (Ramos B cells [2]; G2/M phase cells)?
The value was 63.6.

And the “Cytoplasmic mCherry, mean” value (Ramos B cells [2]; S phase cells)?
The value was 58.6.

And the “Total mCherry, mean” value (Ramos B cells [2]; S phase cells)?
Its value is 103.2.

What about the “Nuclear mCherry, mean” value (Ramos B cells [2]; S phase cells) of the same molecule?
Its value is 56.8.

And the “Cytoplasmic mCherry, mean” value (Ramos B cells [2]; whole transductant population)?
The value was 62.9.

And the “Total mCherry, mean” value (Ramos B cells [2]; whole transductant population)?
Its value is 111.4.

And the “Nuclear mCherry, mean” value (Ramos B cells [2]; whole transductant population)?
The value was 67.5.

— US20160369258A1, “RESTRICTING NUCLEAR PROTEIN TO SPECIFIC PHASES OF THE CELL CYCLE” (UNIVERSITY OF WASHINGTON, priority 2014, published 2016)
